Sequences and labels used below:
B1: Splicing factor 45 (Homo sapiens), Q96I25 (parent)
chain: MSLYDDLGVETSDSKTEGWSKNFKLLQSQLQVKKAALTQAKSQRTKQSTVLAPVIDLKRGGSSDDRQIVDTPPHVAAGLKDPVPSGFSAGEVLIPLADEYDPMFPNDYEKVVKRQREERQRQRELERQKEIEEREKRRKDRHEASGFARRPDPDSDEDEDYERERRKRSMGGAAIAPPTSLVEKDKELPRDFPYEEDSRPRSQSSKAAIPPPVYEEQDRPRSPTGPSNSFLANMGGTVAHKIMQKYGFREGQGLGKHEQGLSTALSVEKTSKRGGKIIVGDATEKDASKKSDSNPLTEILKCPTKVVLLRNMVGAGEVDEDLEVETKEECEKYGKVGKCVIFEIPGAPDDEAVRIFLEFERVESAIKAVVDLNGRYFGGRVVKACFYNLDKFRVLDLAEQV
B2: Splicing factor 45 (Homo sapiens), Q96I25 (parent)
chain: B1 chain
partner: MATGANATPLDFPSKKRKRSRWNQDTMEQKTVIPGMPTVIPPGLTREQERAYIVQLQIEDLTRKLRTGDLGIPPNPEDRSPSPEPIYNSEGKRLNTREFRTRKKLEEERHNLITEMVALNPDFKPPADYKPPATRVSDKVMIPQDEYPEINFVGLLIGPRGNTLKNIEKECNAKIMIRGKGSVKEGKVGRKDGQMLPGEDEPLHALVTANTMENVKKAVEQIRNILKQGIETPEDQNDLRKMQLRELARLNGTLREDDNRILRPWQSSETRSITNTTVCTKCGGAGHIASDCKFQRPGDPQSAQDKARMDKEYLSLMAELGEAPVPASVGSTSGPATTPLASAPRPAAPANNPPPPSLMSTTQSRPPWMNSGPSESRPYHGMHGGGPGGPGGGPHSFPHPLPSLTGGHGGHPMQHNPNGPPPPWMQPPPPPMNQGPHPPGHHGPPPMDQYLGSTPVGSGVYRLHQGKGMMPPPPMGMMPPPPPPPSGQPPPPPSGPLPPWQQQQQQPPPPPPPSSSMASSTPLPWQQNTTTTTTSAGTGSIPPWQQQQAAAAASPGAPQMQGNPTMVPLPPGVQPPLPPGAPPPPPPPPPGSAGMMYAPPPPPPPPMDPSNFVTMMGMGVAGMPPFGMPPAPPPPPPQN

The first experiment covers variants of B1. The conditions noted are these: with SF3B1, O75533-1.
Sequence of SF3B1, O75533-1 (O75533 whole entry): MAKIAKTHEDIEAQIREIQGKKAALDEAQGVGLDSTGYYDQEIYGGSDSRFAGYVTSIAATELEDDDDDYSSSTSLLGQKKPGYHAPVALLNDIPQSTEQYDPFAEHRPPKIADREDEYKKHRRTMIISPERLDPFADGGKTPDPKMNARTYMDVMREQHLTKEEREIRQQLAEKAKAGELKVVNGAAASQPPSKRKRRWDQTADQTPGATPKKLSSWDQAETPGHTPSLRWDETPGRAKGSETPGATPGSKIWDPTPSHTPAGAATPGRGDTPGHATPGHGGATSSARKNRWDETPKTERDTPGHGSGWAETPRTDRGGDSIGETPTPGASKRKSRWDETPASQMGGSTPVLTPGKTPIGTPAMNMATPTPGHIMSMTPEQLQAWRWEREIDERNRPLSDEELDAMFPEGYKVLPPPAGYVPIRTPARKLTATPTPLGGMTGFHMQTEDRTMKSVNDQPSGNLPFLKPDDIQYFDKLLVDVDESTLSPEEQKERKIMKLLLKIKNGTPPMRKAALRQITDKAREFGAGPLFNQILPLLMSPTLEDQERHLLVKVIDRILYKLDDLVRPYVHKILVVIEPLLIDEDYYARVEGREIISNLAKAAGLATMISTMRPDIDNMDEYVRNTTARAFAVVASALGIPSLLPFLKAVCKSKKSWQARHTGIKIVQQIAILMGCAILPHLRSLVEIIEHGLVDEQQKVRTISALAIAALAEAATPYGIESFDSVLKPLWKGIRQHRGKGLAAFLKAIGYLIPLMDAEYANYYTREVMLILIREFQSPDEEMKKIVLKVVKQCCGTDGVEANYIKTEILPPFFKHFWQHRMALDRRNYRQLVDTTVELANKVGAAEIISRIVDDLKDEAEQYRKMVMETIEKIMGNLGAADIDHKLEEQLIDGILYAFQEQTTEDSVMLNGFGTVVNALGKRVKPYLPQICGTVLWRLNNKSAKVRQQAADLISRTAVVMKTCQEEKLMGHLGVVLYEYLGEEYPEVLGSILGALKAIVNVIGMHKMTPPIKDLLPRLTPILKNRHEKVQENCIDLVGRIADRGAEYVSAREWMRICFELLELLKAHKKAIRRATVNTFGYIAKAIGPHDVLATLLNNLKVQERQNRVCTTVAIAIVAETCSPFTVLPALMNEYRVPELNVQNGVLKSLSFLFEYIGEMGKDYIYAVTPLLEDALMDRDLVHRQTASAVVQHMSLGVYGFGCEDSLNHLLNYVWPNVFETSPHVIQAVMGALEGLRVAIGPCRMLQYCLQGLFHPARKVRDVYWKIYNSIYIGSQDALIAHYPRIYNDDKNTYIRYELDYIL
With F377A, the “effect of a mutation on the interaction” value is “disrupting interaction”.
Still for that read-out and setting: the entry for Y376A is “disrupting interaction”.

In the next experiment the parent is B1. The conditions noted are these: with U2AF2, P26368.
Sequence of U2AF2, P26368 (P26368 whole entry): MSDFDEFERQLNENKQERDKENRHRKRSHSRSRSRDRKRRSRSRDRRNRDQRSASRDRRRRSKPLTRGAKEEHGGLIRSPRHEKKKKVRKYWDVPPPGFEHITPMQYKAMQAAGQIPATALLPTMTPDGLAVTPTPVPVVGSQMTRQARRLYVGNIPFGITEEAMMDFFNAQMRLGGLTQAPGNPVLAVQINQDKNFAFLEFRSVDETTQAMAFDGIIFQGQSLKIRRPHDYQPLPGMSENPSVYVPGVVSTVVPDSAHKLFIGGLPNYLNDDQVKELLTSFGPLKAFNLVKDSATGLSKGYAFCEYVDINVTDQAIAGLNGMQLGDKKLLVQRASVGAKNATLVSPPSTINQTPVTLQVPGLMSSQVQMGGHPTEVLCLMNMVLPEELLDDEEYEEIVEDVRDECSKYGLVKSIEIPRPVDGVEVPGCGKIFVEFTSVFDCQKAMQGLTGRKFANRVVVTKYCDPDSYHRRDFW
On to F377A, for which the “effect of a mutation on the interaction” value was “decreasing interaction”.
Turning to R375D, the “effect of a mutation on the interaction” value is recorded as “disrupting interaction”.

A further experiment covers variants of B2. The following applies: with sf01_human SF1, Q15637.
Consider D319A, for which the “effect of a mutation on the interaction” value is “disrupting interaction”.
Same read-out and setting: the entry for D319K is “disrupting interaction”; for Y376A it is “decreasing interaction”; for R375A it is “decreasing interaction”.
On the same count and under the same terms, next, R375D: “disrupting interaction”; F377Y: “decreasing interaction”; F377A: “decreasing interaction”.

The record behind these values is IntAct's records for PubMed 17589525.
